Measured values taken from article PMC2536759 (Cancer research, 2008).
Like-named read-outs stand apart in the source and are kept apart here.

Key:
[1] = biological target: T1, His-caspase-8(184-384) (UniProt Q14790 184-384); experiment: pull-down
[2] = biological target: T1, His-caspase-8(184-384); experiment: pull-down; remark: listed apart in the source

T1 sequence (Q14790 184-384): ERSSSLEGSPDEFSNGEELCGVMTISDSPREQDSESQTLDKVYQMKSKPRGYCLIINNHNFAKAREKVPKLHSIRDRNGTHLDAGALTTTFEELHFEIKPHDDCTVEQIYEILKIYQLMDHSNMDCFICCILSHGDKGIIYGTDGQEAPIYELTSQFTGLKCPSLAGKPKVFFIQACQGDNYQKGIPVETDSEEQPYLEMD

Binder	binding result [1]	binding result [2]
CQCRRKNYGQLDIFPARDTY [synthetic MUC1-CD(1-20) peptide]	binds	–
CQCRRKNYGQLDIFPARDTY (domain or fragment, human) [GST-MUC1-CD(1-20)]	–	binds
